Experiment [1] addresses T1, human CXCR4 (human, UniProt P61073 1-352). Description: cell-based or functional assay.
For experiment [2], the target named is T1, human CXCR4. Description: flow cytometry on Cf2-Th cells transfected with human CXCR4, IgG1 format. On the procedure:
A typical protocol for the fluorescent flow cytometry-based assay was as follows. Ten microliter of a purified test IgG solution or buffer as a control were added to 10 microliter of a suspension containing approximately 30,000 Cf2-Th cells transfected to express human CXCR4. After incubation on ice for 40 min, cells were washed with FACS buffer (phosphate-buffered saline (PBS), pH7.4; 2% fetal calf serum, 0.1% sodium azide) to remove unbound antibodies. Ten microliter of a solution of phycoerythrin (PE)-conjugated mouse anti-human Fc monoclonal antibody (1/20 dilution; catalog number 12-4998-82, eBioscience Inc., San Diego, Calif.) were then added to the cells, and, after a 30-min incubation on ice, cells were washed twice and then formalin-fixed (FIX buffer: PBS, pH7.4; 0.5% formaldehyde). Fixed samples were analysed by fluorescent flow cytometry using a Guava-PCA96 instrument (EMD Millipore Chemicals, Merck KGaA, Darmstadt, Germany).

Experiment [3] deals with T1, human CXCR4. The experiment can be described thus: flow cytometry, IgG 10 µg/mL, CXCR4-expressing Ramos (RA1) cells. On the procedure: Binding of test IgGs to CXCR4-expressing human lymphoma cells (Ramos; RA1, ATCC® CRL-1596™) was measured by fluorescent flow cytometry-based assay. Tumor cell staining was conducted as follows: human Fcγ receptors of RA1 cells were saturated by incubation at 4° C. for 30 minutes in PBS containing 2% human serum and 0.5 mM EDTA. Cells were then incubated at 4° C. for one hour with test IgGs or a human isotypic IgG1 kappa control (Coger Sarl, Paris, France) (both antibody types at 10 μg/mL). The cells were washed with PBS and further incubated for one hour at 4° C. with a goat F(ab′)2 fragment anti-human IgG (H+L)-PE (Beckman Coulter). The cells were washed twice with PBS and fixed with 0.5% formaldehyde in PBS for analysis by flow cytometry. The data were acquired using an eleven-color flow cytometer (LSRII, BD Biosciences), and the analyses were performed with the FlowJo flow cytometry analysis software (Tree Star Inc., Ashland, Oreg.). The living cells were selected using the side scatter (SSC) and the forward scatter (FSC); 10,000 events were acquired for each analysis. MFI values were recorded using the PE channel.

Experiment [4] deals with T1, human CXCR4. The experiment can be described thus: cell-based or functional assay. This is another data set of the same source.

T1 sequence (P61073 whole entry): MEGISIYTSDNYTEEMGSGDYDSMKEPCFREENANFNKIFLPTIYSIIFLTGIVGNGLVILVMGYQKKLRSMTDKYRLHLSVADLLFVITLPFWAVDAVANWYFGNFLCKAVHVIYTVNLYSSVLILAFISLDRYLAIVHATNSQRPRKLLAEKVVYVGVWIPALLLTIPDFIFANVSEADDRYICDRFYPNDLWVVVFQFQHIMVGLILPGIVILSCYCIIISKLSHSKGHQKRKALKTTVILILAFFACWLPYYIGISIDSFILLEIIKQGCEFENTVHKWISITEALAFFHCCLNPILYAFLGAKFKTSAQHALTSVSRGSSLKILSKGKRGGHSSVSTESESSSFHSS

B1: V62.1-R108H-m43-m38 (antibody, human IgG1, V domains shown)
VH: EVQLLESGGGLVQPGGSLRLSCAASGFTFSSYAMSWVRQAPGKGLEWVSAISGSGGGSTRYADSVKGRFTISRDNSKNTLYLQMNSLRAEDTAVYYCARQGKTRVYGYHWHGYGSTHALDYWGQGTLVTVSS
VL: EIVLTQSPGTLSLSPGERATLSCRASQSVSSSYLAWYQQKPGQAPRLLIYGASSRATGIPDRFSGSGSGTDFTLTISRLEPEDFAVYYCQQWSSDSVTFGQGTKVEIKR
notes: Tested as an IgG (human IgG1 format); also called V62.1-H-m43-m38; IgG1 62.1-R108H-m43-m38
One may read the EC50 as the concentration at which the effect is half-maximal. Lower therefore signals greater potency. As for B1, in the experiment with human CXCR4 [1], the “% Inhibition of SDF-1alpha-induced chemotaxis of U937 cells (IgG at 100 nM)” value stood at 77%. The molecule also displayed a concentration for a half-maximal effect (EC50) with human CXCR4 [2] of under 10 nM. The molecule further gave an MFI with human CXCR4 [3] of 488. In addition, the “IC50 (nM), inhibition of SDF-1alpha-induced calcium flux” value in the experiment with human CXCR4 [4] was found to be 3.8 nM.

Source of the values: patent US20190389958A1 (MSM PROTEIN TECHNOLOGIES, published 2019).
